How the values were obtained:
[1] = molecular target: T1, PlyC-A, the PlyC heavy chain (C1 bacteriophage lysin, ORF 11) (C1 bacteriophage, UniProt Q7Y3F1 2-465); assay: N-terminal sequencing signals of the native enzyme (55 pm PlyC-B, 12 pm PlyC-A)
T1 construct: 50 kDa subunit of the PlyC lysin; also called heavy subunit (ORF 11); plyCA gene product
T1 sequence: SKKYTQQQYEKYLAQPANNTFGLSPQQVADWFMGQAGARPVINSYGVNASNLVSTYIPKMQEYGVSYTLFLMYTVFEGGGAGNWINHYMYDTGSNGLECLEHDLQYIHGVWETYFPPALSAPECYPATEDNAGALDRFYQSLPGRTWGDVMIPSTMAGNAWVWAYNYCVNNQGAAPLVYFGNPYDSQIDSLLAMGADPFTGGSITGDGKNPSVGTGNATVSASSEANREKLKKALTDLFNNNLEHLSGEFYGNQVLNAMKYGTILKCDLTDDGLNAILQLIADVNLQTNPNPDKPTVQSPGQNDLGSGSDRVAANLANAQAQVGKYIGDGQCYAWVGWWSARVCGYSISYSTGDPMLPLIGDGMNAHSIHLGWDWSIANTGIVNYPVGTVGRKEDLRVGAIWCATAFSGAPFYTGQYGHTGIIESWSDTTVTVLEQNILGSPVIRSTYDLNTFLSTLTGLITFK

[2] = molecular target: T2, PlyC-A, the PlyC heavy chain (C1 bacteriophage lysin, ORF 11)
T2 chain: T1 sequence

[3] = molecular target: T1, PlyC-A, the PlyC heavy chain (C1 …); assay: 35S-methionine labelling of purified PlyC, SDS-PAGE bands counted by scintillation (n=20), cpm per methionine
Procedure: ³⁵S-methionine labeling of PlyC. […] A fresh 20 ml overnight culture of B834/pBAD24::plyC was washed twice with M9 media, and used to inoculate a 2 L flask of M9 minimal media supplemented with 2 mCi ³⁵S-methionine (New England Nuclear). Expression of ³⁵S-Methionine-PlyC was induced with 0.5% arabinose and the enzyme was purified as described above. The heavy and light chains were resolved by SDS-PAGE using 15 μg of labeled PlyC loaded each lane (n=20). Individual bands were cut out of the gel, suspended in 1 ml of SigmaFluor scintillation fluid (Sigma), and counts per minute (cpm) of β-activity was assessed on a Beckman LS5000TD counter.
In order to achieve a mass of 100 kDa, multiple copies of one or both subunits must exist. Thus, PlyC is a multimer. Circumstantial evidence for a molar ratio of 5 light chains to one heavy chain was obtained from N-terminal sequencing of the native enzyme, which yielded a 55 pm signal for PlyC-B and a 12 pm signal for PlyC-A (data not shown). […] Therefore, to further investigate the ratios of PlyC-A and PlyC-B, we cloned plyC into B834 E. coli cells, which are auxotrophic for methionine. […] We were able to enumerate an average signal, measured in counts per minute, for each chain by placing gel-extracted bands (n=20) in scintillation fluid and measuring the β activity (Table IV). […]

B1: PlyC-B, the PlyC light chain (C1 bacteriophage lysin, ORF 9) (enzyme)
chain: SKINVNVENVSGVQGFLFHTDGKESYGYRAFINGVEIGIKDIETVQGFQQIIPSINISKSDVEAIRKAMKK
notes: 8 kDa subunit of the PlyC lysin, a 72 amino acid polypeptide; About six copies per PlyC-A are proposed in the native multimer; also called light subunit (ORF 9); plyCB gene product
molar ratio of light chains to heavy chain [1]: 5 light chains per heavy chain | PlyC lytic activity of a double transformant (pBAD33::plyCB and pBAD24::plyCA in one host) [2]: Upon induction with 0.5% arabinose, the double transformant contained PlyC activity | activity of the refolded PlyC-B and PlyC-A mixture, normalized to the native PlyC clone (FIG. 3, lane 5) [2]: reconstituted ~25% of the wild-type activity (lane 5) | lytic activity on group A streptococci (chains expressed individually, mixed, incubated 1 hr at room temperature) [2]: When both chains were mixed together and allowed to incubate at room temperature for 1 hr, again no activity was noted | lytic activity on group A streptococci after urea denaturation and refolding of the mixed chains, relative to wild-type PlyC [2]: we were able to reconstitute ~30% of wild-type activity | lytic activity on group A streptococci of a lil- chimera with full-length plyCB and plyCA [2]: a lil- chimera, which contained full-length plyCB and plyCA, possessed wild-type PlyC activity | Avg. ratio PlyC-A:PlyC-B [3]: 6.17 PlyC-B per PlyC-A

Reference: US20070265198A1 (ROCKEFELLER UNIVERSITY, published 2007)
